In experiment [1] the target is FoxP1 FKH domain, single-cysteine mutant N32C (on C61S) labelled with Oregon Green 488 (human). Briefly: fluorescence polarisation. For orientation: Polarisation of emitted light reports the rotation of a fluorescent probe.
Experiment [2] shares this target. In words: fluorescence polarisation. This is another data set of the same source.

As usually defined, the Kd is the concentration at which binding is half-saturated. As a reminder, the kon is a measure of how fast the partners come together. Read a high kon as fast association.

Where two headings read alike, the source gives them in different places.

B1: FoxP2 FKH domain, unlabeled (domain or fragment)
chain: VRPPFTYATLIRQAIMESSDRQLTLNEIYSWFTRTFAYFRRNAATWKNAVRHNLSLHKCFVRVENVKGAVWTVDEVEYQKRRSQKITGSPTL
B1 registered a Kd in experiment [1] of 38 µM. In experiment [2], this molecule displayed a Kd of 18 µM and a kon of 583 M⁻¹ s⁻¹.

(Values after article PMC10362293.)
